Reference: publication PMC5775426

Key:
[1] = biological target: AV2 protein of tomato leaf curl Palampur virus, untagged, in N. benthamiana leaves (Tomato leaf curl Palampur virus); experiment: SDS-PAGE and western blot; leaf extracts of N. benthamiana (PVX-infiltrated at 14 dpi, ToLCPalV-infected, TRV-infiltrated), boiled 5 minutes, 10% SDS-PAGE, detection with AV2 antiserum; dimer told from the band's size
[2] = biological target: AV2Δ10N, untagged, from PVX-AV2Δ10N in N. benthamiana leaves (Tomato leaf curl Palampur virus); experiment: as above

Row | Substance | stoichiometry N [1] | stoichiometry N [2]
1 | AV2 protein of tomato leaf curl Palampur virus, untagged, in N. benthamiana leaves (natural protein) | 2 | 
2 | AV2Δ10N, untagged, from PVX-AV2Δ10N in N. benthamiana leaves (domain or fragment) |  | 2
